The source of these data is US6083917.

Where “and” joins values, the source holds several entries; their conditions need not be identical. Equal values may be shown once. Where only a bound is given, the exact number is not on record here.

In one test the target is rat brain protein farnesyltransferase (rat).
With CIIC (peptide), the Concentration for 50% Inhibition (farnesylation of p21^H-ras) stood at 0.35 µM.

CVLS (peptide) yielded a Concentration for 50% Inhibition (farnesylation of p21^H-ras) of 3 µM.

On to CLIL (peptide), for which the Concentration for 50% Inhibition (farnesylation of p21^H-ras) was 17 µM.

As to CVVM (peptide), the Concentration for 50% Inhibition (farnesylation of p21^H-ras) is 0.15 µM.

Substance CVIA (peptide) came in with a Concentration for 50% Inhibition (farnesylation of p21^H-ras) of 5 µM.

Consider CAIL (peptide), for which the Concentration for 50% Inhibition (farnesylation of p21^H-ras) came out at 100 µM.

With CVIS (peptide), the Concentration for 50% Inhibition (farnesylation of p21^H-ras) came to 1 µM.

On to CVIL (peptide), for which the Concentration for 50% Inhibition (farnesylation of p21^H-ras) amounted to 11 µM.

The substance CIIM (peptide) gave a Concentration for 50% Inhibition (farnesylation of p21^H-ras) of 0.15 µM.

Turning to CIIS (peptide), the Concentration for 50% Inhibition (farnesylation of p21^H-ras) amounted to 0.35 µM.

As for CTVA (peptide), the Concentration for 50% Inhibition (farnesylation of p21^H-ras) worked out at 30 µM.

In the case of CVLM (peptide), the Concentration for 50% Inhibition (farnesylation of p21^H-ras) came out at 0.15 µM.

CLLL (peptide) gave a Concentration for 50% Inhibition (farnesylation of p21^H-ras) of 22 µM.

For the substance CIKS (peptide), the Concentration for 50% Inhibition (farnesylation of p21^H-ras) is above 100 µM.

Take CCVQ (peptide): the Concentration for 50% Inhibition (farnesylation of p21^H-ras) worked out at 0.35 µM.

CVIM (peptide) had a Concentration for 50% Inhibition (farnesylation of p21^H-ras) of 0.15 µM.

As for CSIM (peptide), the Concentration for 50% Inhibition (farnesylation of p21^H-ras) is 0.2 µM.

In turn, CAIM (peptide) returned a Concentration for 50% Inhibition (farnesylation of p21^H-ras) of 0.15 µM.

The target is the same in another test. This is another data set of the same source.
Substance “CVIM with glycine at the A2 position (peptide)” returned a Concentration for 50% Inhibition of Farnesylation of p21^H-ras of 8 µM.

Turning to CPIM (peptide), the Concentration for 50% Inhibition of Farnesylation of p21^H-ras turned out to be 8 µM.

CEIM (peptide) displayed a Concentration for 50% Inhibition of Farnesylation of p21^H-ras of 1.5 µM.

“CVIM with glutamic acid at the A2 position (peptide)” returned an affinity for the enzyme (from 50% inhibition) above 50 fold.

Substance CGIM (peptide) came in with a Concentration for 50% Inhibition of Farnesylation of p21^H-ras of 4 µM.

In turn, “CVIM with lysine at the A2 position (peptide)” displayed an affinity for the enzyme (from 50% inhibition) above 50 fold.

For the substance CVPM (peptide), the Concentration for 50% Inhibition of Farnesylation of p21^H-ras came out at 20 µM.

For the substance CKIM (peptide), the Concentration for 50% Inhibition of Farnesylation of p21^H-ras came out at 0.7 µM.

A further test has the same target. The source holds these as a separate data set.
On to CVIA (peptide), for which the affinity for the enzyme as estimated by the concentration required for 50% inhibition was above 30 fold.

For the substance CVAM (peptide), the affinity for the enzyme as estimated by the concentration required for 50% inhibition is above 30 fold.

In the case of “CVIM with lysine at the A2 position (peptide)”, the affinity for the enzyme as estimated by the concentration required for 50% inhibition is above 30 fold.

“CVIM with lysine at the X position (peptide)”: the affinity for the enzyme as estimated by the concentration required for 50% inhibition is above 30 fold.

For another test the target is unchanged. The source holds these as a separate data set.
The substance CVIL (peptide) registered a Concentration for 50% Inhibition of Farnesylation of p21^H-ras of 12 µM.

For a further test the target is unchanged. This is another data set of the same source.
N-Octanoyl-CVFM (peptide): the Concentration for 50% Inhibition of Farnesylation of p21^H-ras amounted to 0.35 µM.

Substance N-AcCCVFM (peptide) gave a Concentration for 50% Inhibition of Farnesylation of p21^H-ras of 0.11 µM.

With N-AcECVFM (peptide), the Concentration for 50% Inhibition of Farnesylation of p21^H-ras amounted to 2.4 µM.

On to N-AcMCVFM (peptide), for which the Concentration for 50% Inhibition of Farnesylation of p21^H-ras is 1.4 µM.

With N-AcHCVFM (peptide), the Concentration for 50% Inhibition of Farnesylation of p21^H-ras was 0.24 µM.

In the case of N-AcCVIM (peptide), the Concentration for 50% Inhibition of Farnesylation of p21^H-ras came to 0.15 µM.

As for N-CholylCVFM (peptide), the Concentration for 50% Inhibition of Farnesylation of p21^H-ras is 0.21 µM.

As for CCVFM (peptide), the Concentration for 50% Inhibition of Farnesylation of p21^H-ras was 0.44 µM.

On to CVFM (peptide), for which the Concentration for 50% Inhibition of Farnesylation of p21^H-ras is 0.06 µM and 0.032 µM and 0.09 µM.

CVWM (peptide) gave a Concentration for 50% Inhibition of Farnesylation of p21^H-ras of 0.32 µM.

As to N-AcPCVFM (peptide), the Concentration for 50% Inhibition of Farnesylation of p21^H-ras was 0.2 µM.

Substance N-AcGCVFM (peptide) registered a Concentration for 50% Inhibition of Farnesylation of p21^H-ras of 0.43 µM.

N-AcCVFM (peptide): the Concentration for 50% Inhibition of Farnesylation of p21^H-ras is 0.25 µM.

N-AcCVWM (peptide) returned a Concentration for 50% Inhibition of Farnesylation of p21^H-ras of 3.7 µM.

KCVFM (peptide) registered a Concentration for 50% Inhibition of Farnesylation of p21^H-ras of 1.1 µM.

For CVIM (peptide), the Concentration for 50% Inhibition of Farnesylation of p21^H-ras worked out at 0.15 µM.

N-AcSCVFM (peptide) displayed a Concentration for 50% Inhibition of Farnesylation of p21^H-ras of 0.23 µM.

N-AcDCVFM (peptide) showed a Concentration for 50% Inhibition of Farnesylation of p21^H-ras of 1.9 µM.

Substance N-AcKCVFM (peptide) displayed a Concentration for 50% Inhibition of Farnesylation of p21^H-ras of 0.3 µM.

A further test shares this target. This is another data set of the same source.
“CVIM with glycine at the X position (peptide)” came in with a Concentration for 50% Inhibition of Farnesylation of p21^H-ras above 40 µM.

As to CVIF (peptide), the Concentration for 50% Inhibition of Farnesylation of p21^H-ras turned out to be 0.5 µM.

The substance “CVIM with lysine at the X position (peptide)” registered a Concentration for 50% Inhibition of Farnesylation of p21^H-ras above 40 µM.

“CVIM with glutamic acid at the X position (peptide)”: the Concentration for 50% Inhibition of Farnesylation of p21^H-ras was above 40 µM.

The target is the same in a further test. The source holds these as a separate data set.
As for CVFM (peptide), the concentration giving 50% inhibition of farnesylation of p21^H-ras (FIG. 23A) amounted to 0.07 µM.

The substance N-AcCVFM (peptide) gave a concentration giving 50% inhibition of farnesylation of p21^H-ras (FIG. 23A) of 0.27 µM.

The next test shares this target. This is another data set of the same source.
CVFM (peptide) showed an affinity for the enzyme relative to CVIM (from 50% inhibition) of 6 fold and a half-maximal inhibition of farnesylation of p21^H-ras of 25 nM.
